Data: US20130273046A1 (published 2013)

Target: human EDAR-Fc
Assay: SPR (Biacore); Fab fragment

human EDAR-Fc, sequence (chain, as listed by the source): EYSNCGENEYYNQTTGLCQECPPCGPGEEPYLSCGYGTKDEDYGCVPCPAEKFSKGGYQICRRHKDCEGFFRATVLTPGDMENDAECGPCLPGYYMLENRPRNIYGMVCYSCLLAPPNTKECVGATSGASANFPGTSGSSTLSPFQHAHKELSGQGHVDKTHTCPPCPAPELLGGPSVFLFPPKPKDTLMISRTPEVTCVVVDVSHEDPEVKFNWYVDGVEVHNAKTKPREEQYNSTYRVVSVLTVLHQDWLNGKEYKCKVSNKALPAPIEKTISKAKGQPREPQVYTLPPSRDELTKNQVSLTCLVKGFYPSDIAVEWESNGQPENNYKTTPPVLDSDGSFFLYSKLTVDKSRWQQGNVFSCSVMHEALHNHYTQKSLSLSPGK

B1: mAbEDAR6 (antibody, V domains shown)
VH: EVQLQQSGPELVKPGASVKMSCKASGYSFTGYNMHWVKQSHGKSLEWIGYIDPYNGATSKNQKFKGKATLTVDKSSTTAYIQLNSLTSEDSAVYYCARYYYGDYHWYFDVWGAGTTVTVSS
VL: DVVMTQTPLSLPVSLGDQASISCRSSQSLVHSNGNTYLHWYLQQPGQSPKLLIYKVSNRFSGVPDRFSGSGSGTDFTLKISRVEAEDLGVYFCSQHTHVPPTFGAGTKLELKR
  Kd: 1.58 nM

B2: mAbEDAR2 (antibody, V domains shown)
VH: QVQLQQPGAELVKPGASVKLSCKASGYTFTSYWMQWVKQRPGQGIEWIGEIDPSDSYTYYNQKFKGKATLTIDKSSSTAYMQLSSLTSEDSAVYYCSRKNYYRGMDYWGQGTSVTVSS
VL: DVLMTQTPLSLPVSLGDQASISCRSSQNIVQSNGNTYLEWYLQKPGQSPKLLIYKVSNRFSGVPDRFSGSGSGTDFTLKISRVEADDLGVYYCFQVSHVPYTFGGGTKLEIKR
  Kd: 1 nM
